Measurements published in the supplement of paper PMC10065799, “High-throughput profiling of sequence recognition by tyrosine kinases and SH2 domains using bacterial peptide display” (eLife, 2023).

What was measured:
Hck = Hck (UniProt P08631); assay: phosphorylation enrichment, bacterial display (enrichment ratio); higher = better substrate or ligand; peptides without Tyr show the background
EPHB2 = EPHB2 (UniProt P29323); assay: as above
Fer (mouse) = assay: as above
Fyn = Fyn (UniProt P06241); assay: as above
Sequence of Fyn (P06241 whole entry, looked up): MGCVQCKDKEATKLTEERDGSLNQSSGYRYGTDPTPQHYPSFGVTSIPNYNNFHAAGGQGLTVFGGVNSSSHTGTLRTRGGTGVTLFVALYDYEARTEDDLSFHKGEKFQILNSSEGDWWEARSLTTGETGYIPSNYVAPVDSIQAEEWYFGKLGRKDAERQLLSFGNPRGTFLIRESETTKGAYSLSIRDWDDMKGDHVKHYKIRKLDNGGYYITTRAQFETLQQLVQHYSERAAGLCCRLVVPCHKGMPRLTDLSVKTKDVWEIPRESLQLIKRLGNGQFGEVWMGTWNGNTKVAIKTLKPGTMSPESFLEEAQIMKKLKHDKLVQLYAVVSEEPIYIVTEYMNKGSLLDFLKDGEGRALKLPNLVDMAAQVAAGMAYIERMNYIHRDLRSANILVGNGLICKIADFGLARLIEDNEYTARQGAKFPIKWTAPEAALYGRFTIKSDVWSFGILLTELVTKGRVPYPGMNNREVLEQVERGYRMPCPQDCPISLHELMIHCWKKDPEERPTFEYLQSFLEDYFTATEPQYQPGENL

EPHB1 = EPHB1 (UniProt P54762); assay: as above
Sequence of EPHB1 (P54762 whole entry, looked up): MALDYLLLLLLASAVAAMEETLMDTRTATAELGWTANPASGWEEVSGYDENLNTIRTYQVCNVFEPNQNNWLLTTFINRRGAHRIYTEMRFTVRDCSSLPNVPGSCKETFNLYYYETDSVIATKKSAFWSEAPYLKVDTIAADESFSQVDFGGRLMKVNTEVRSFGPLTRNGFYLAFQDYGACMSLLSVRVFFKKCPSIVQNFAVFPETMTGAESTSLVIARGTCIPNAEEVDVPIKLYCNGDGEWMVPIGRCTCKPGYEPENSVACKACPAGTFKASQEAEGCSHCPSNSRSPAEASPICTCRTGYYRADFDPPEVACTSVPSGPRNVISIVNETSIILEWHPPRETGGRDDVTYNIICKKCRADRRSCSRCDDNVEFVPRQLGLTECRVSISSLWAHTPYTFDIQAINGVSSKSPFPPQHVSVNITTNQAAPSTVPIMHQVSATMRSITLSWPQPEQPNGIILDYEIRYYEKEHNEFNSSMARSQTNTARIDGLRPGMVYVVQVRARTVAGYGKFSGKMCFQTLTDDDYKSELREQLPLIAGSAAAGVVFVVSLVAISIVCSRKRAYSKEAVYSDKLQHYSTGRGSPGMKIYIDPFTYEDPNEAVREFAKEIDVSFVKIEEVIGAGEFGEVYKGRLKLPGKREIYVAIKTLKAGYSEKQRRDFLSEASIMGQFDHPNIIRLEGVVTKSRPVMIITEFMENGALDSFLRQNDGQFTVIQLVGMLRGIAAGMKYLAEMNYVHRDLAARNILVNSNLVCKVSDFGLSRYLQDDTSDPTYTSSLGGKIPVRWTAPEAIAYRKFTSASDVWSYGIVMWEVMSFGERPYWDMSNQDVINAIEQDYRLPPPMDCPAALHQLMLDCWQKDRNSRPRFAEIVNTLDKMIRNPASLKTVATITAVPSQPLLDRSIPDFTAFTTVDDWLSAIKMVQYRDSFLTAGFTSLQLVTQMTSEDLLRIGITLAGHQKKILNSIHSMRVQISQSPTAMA

Fes = Fes (UniProt P07332); assay: as above
Sequence of Fes (P07332 whole entry, looked up): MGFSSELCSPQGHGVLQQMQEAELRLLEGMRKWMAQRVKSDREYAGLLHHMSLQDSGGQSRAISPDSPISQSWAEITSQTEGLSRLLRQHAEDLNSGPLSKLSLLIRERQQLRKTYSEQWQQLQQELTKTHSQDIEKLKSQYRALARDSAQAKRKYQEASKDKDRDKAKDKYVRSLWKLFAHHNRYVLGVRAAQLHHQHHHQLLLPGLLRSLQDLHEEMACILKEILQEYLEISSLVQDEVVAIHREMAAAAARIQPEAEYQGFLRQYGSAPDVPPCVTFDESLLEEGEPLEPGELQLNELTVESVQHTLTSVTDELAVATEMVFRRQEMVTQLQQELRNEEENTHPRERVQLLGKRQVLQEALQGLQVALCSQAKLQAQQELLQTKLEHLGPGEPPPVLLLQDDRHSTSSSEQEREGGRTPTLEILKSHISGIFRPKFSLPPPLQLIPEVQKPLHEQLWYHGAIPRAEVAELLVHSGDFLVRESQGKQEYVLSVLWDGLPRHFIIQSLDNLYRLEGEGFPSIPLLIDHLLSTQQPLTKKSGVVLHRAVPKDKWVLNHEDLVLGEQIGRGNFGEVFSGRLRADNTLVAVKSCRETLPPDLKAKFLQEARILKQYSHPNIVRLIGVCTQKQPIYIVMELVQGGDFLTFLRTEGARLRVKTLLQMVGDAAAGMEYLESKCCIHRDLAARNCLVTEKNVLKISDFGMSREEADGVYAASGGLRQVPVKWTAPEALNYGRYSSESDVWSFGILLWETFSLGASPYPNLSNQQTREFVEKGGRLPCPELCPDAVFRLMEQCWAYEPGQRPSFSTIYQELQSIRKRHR

AncSZ = assay: as above
FGFR1 = FGFR1 (UniProt P11362); assay: as above
c-Abl (mouse) = assay: as above
FGFR3 = FGFR3 (UniProt P22607); assay: as above
Jak2 = Jak2 (UniProt O60674); assay: as above
Sequence of Jak2 (O60674 whole entry, looked up): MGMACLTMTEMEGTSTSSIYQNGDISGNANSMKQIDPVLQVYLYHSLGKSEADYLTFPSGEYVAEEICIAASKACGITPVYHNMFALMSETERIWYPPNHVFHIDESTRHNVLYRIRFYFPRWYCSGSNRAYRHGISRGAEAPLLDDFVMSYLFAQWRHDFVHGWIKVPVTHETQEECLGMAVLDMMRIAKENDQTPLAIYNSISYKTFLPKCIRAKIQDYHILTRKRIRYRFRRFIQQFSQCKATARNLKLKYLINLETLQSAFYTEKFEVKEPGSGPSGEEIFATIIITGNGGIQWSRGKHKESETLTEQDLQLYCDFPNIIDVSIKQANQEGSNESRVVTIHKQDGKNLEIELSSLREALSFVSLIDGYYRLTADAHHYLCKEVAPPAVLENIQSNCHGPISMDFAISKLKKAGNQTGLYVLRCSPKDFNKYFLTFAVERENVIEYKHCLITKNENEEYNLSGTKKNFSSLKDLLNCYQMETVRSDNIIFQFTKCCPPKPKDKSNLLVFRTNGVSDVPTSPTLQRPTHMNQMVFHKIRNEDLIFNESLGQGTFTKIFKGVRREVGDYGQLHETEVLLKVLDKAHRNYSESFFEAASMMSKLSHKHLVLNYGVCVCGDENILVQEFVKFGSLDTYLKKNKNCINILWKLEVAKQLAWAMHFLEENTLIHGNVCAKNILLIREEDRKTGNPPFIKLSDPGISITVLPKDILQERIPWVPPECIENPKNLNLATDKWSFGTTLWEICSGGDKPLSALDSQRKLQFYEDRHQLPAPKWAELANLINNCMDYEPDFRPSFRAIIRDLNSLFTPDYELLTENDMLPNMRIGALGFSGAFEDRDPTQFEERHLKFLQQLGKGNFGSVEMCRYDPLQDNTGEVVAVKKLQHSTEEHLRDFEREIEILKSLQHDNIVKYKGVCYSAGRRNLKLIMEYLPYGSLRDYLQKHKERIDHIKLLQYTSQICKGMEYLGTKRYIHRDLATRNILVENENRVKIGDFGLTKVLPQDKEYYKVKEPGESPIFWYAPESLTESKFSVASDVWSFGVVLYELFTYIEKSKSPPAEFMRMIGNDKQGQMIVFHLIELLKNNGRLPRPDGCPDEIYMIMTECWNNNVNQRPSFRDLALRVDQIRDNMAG

c-Src = assay: as above
MERTK = MERTK (UniProt Q12866); assay: as above
Sequence of MERTK (Q12866 whole entry, looked up): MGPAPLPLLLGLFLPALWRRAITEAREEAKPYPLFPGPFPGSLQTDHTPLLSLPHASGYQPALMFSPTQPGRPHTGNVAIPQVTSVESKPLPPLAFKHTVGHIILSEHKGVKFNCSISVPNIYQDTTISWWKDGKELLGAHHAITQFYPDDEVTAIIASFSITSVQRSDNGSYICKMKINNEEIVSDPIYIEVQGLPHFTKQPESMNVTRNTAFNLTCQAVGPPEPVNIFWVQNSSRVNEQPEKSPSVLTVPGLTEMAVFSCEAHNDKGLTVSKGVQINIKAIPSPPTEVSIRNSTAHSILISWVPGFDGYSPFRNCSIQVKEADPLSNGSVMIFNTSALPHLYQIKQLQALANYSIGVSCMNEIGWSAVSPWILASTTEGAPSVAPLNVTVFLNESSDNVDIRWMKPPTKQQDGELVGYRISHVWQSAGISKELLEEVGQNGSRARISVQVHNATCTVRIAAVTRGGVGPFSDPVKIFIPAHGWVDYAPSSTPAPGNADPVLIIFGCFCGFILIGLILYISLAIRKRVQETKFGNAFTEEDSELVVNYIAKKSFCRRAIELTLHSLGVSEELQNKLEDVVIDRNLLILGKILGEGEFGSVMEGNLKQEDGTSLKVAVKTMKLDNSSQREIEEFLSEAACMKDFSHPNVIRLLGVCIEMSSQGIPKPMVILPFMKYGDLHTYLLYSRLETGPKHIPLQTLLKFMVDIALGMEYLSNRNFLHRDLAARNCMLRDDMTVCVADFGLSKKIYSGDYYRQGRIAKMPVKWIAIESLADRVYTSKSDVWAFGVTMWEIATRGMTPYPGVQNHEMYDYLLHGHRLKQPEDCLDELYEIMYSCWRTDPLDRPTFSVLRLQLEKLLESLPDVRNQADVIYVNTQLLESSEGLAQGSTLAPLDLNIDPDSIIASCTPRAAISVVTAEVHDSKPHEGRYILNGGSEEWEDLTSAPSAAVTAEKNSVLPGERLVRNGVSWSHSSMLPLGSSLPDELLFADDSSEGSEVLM

c-Src SH2 = assay: SH2 binding enrichment of the phosphorylated peptide, bacterial display (enrichment ratio); higher = better substrate or ligand; peptides without Tyr show the background
SHP2-C SH2 = assay: as above
Grb2 SH2 = Grb2 SH2 (UniProt P62993); assay: as above
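Throughout, for SH2 binding enrichment of the phosphorylated peptide, bacterial display: peptide library displayed on the E. coli surface as eCPX fusions, selected cells deep-sequenced, score is each peptide's frequency after selection divided by its frequency in the input.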
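Throughout, for phosphorylation enrichment, bacterial display: 11-residue human phosphosite peptides and single-mutation variants displayed on the E. coli surface, counted by deep sequencing, each peptide's frequency after selection divided by its frequency in the unselected input library; frequency after pTyr selection over input frequency; kinase dosed for 20-30% of maximal phosphorylation in three min.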

Sequence of Hck (P08631 whole entry, looked up): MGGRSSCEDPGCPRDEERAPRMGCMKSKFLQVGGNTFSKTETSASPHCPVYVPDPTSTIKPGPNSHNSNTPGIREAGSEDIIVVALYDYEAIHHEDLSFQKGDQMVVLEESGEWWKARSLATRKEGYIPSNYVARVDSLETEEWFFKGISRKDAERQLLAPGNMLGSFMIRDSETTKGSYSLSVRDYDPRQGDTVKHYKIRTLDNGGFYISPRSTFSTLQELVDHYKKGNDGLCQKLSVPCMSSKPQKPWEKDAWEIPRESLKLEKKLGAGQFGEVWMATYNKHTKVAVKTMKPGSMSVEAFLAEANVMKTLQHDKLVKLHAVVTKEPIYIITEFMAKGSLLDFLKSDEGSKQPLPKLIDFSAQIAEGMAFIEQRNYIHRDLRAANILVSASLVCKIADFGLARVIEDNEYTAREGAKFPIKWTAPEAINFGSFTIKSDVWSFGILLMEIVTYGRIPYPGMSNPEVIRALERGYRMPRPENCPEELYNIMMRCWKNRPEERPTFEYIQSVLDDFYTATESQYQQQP

Row | Sequence | SH2 binding enrichment (c-Src SH2) | SH2 binding enrichment (SHP2-C SH2) | SH2 binding enrichment (Grb2 SH2) | phosphorylation enrichment (Hck) | phosphorylation enrichment (EPHB2) | phosphorylation enrichment (Fer (mouse)) | phosphorylation enrichment (Fyn) | phosphorylation enrichment (EPHB1) | phosphorylation enrichment (Fes) | phosphorylation enrichment (AncSZ) | phosphorylation enrichment (FGFR1) | phosphorylation enrichment (c-Abl (mouse)) | phosphorylation enrichment (FGFR3) | phosphorylation enrichment (Jak2) | phosphorylation enrichment (c-Src) | phosphorylation enrichment (MERTK)
1 | CPPKVYELMRA [ABL2_Y515] | 1.53 | 0.693 | 0.944 | 1.81 | 2.41 | 6.41 | 1.13 | 8.38 | 1.04 | 0.662 | 0.73 | 0.585 | 0.679 | 0.53 | 1.33 | 3.81
2 | CTTFHYNYMCN [TP53_Y234_I232F] | 4.4 | 1.82 | 1.17 | 0.514 | 0.629 | 0.659 | 0.547 | 0.809 | 1.05 | 1.03 | 0.696 | 0.955 | 0.713 | 0.842 | 0.507 | 0.475
3 | CTTIHKNFMCN [TP53_Y234_Y234K_YF] | 0.653 | 0.795 | 1.1 | 0.405 | 0.53 | 0.453 | 0.409 | 0.394 | 0.699 | 0.831 | 0.486 | 0.49 | 0.585 | 0.553 | 0.448 | 0.42
4 | CTTIHYMYMCN [TP53_Y234_N235M] | 1.06 | 2.59 | 0.998 | 0.45 | 0.517 | 0.556 | 0.362 | 0.62 | 1.14 | 1.06 | 0.485 | 0.681 | 0.772 | 0.973 | 0.332 | 0.34
5 | CTTIHYSYMCN [TP53_Y234_N235S] | 5.17 | 6.33 | 1.58 | 0.53 | 0.628 | 1.01 | 0.465 | 0.524 | 0.916 | 0.897 | 0.667 | 0.627 | 0.724 | 0.663 | 0.526 | 0.874
6 | CTTIHYTFMCN [TP53_Y234_N235T_YF] | 1.85 | 3.21 | 1.83 | 0.576 | 0.553 | 0.575 | 0.535 | 0.562 | 1.14 | 0.939 | 0.718 | 0.819 | 0.754 | 0.976 | 0.653 | 0.536
7 | CTTIHYYYMCN [TP53_Y234_N235Y] | 2.94 | 1.96 | 1.6 | 0.804 | 0.773 | 0.574 | 1.41 | 0.585 | 1.08 | 0.991 | 2.74 | 0.644 | 2.11 | 1.27 | 1.05 | 0.767

Continued, in another order:

Row | SH2 binding enrichment (c-Src SH2) | SH2 binding enrichment (SHP2-C SH2) | SH2 binding enrichment (Grb2 SH2) | Sequence | phosphorylation enrichment (Hck) | phosphorylation enrichment (EPHB2) | phosphorylation enrichment (Fer (mouse)) | phosphorylation enrichment (Fyn) | phosphorylation enrichment (EPHB1) | phosphorylation enrichment (Fes) | phosphorylation enrichment (AncSZ) | phosphorylation enrichment (FGFR1) | phosphorylation enrichment (c-Abl (mouse)) | phosphorylation enrichment (FGFR3) | phosphorylation enrichment (Jak2) | phosphorylation enrichment (c-Src) | phosphorylation enrichment (MERTK)
8 | 0.611 | 0.769 | 1.06 | CKPGFYNLKEK [LAMA1_Y490] | 0.357 | 0.469 | 0.43 | 0.359 | 0.543 | 0.793 | 0.693 | 0.472 | 0.568 | 0.507 | 0.602 | 0.34 | 0.378
9 | 0.752 | 0.547 | 0.906 | CLEKEYFDQHF [NPC1_Y394_R389C] | 0.508 | 0.572 | 0.593 | 0.514 | 0.581 | 1.32 | 1.53 | 0.949 | 0.902 | 1.13 | 1.04 | 0.585 | 0.406
10 | 0.768 | 0.847 | 0.854 | CQAHGYSCQLI [STK11_Y156_F157S] | 0.5 | 0.508 | 0.506 | 0.648 | 0.568 | 0.925 | 0.77 | 0.529 | 0.492 | 0.531 | 0.556 | 0.435 | 0.47
11 | 0.462 | 0.622 | 0.71 | CTLLPYFSAPV [DGKE_Y269_R273P_YF] | 0.557 | 0.677 | 0.493 | 0.518 | 0.66 | 1.34 | 1.24 | 0.615 | 0.896 | 0.826 | 1.19 | 0.569 | 0.453
12 | 0.427 | 0.502 | 0.633 | CTNELYMMMRD [FGFR1_Y730] | 1.47 | 1.09 | 0.693 | 0.705 | 1.86 | 1.38 | 1.34 | 0.935 | 0.898 | 1.28 | 1.35 | 1.15 | 2
13 | 0.716 | 1.35 | 0.894 | CTTIHYIYMCN [TP53_Y234_N235I] | 0.322 | 0.461 | 0.478 | 0.254 | 0.459 | 0.989 | 0.728 | 0.404 | 0.742 | 0.548 | 0.907 | 0.263 | 0.281
14 | 1.65 | 1.82 | 1.87 | CTTIRYNFMCN [TP53_Y234_H233R_YF] | 0.435 | 0.613 | 0.501 | 0.521 | 0.552 | 0.983 | 0.948 | 0.434 | 0.618 | 0.684 | 0.833 | 0.372 | 0.407
15 | 11 | 2.04 | 1.01 | CTTSHYNYMCN [TP53_Y234_I232S] | 0.563 | 0.534 | 0.55 | 0.49 | 0.741 | 0.755 | 0.896 | 0.569 | 0.515 | 0.649 | 0.537 | 0.441 | 0.549
16 | 0.479 | 6.03 | 0.646 | DAPVVYLGSFG [PRAG1_Y132_R137G] | 0.631 | 0.579 | 0.475 | 0.514 | 0.389 | 0.851 | 0.863 | 0.491 | 0.671 | 0.623 | 0.776 | 0.507 | 0.437
17 | 0.542 | 0.634 | 0.933 | DASAVYLHDFQ [PLCG2_Y242] | 0.622 | 0.561 | 0.474 | 0.533 | 0.528 | 1.31 | 0.746 | 0.477 | 0.573 | 0.543 | 0.792 | 0.447 | 0.477
